Holding throughout (experiment): fluorescence polarisation
For orientation: Fluorescence polarisation rises when a labelled molecule tumbles more slowly, as on binding a larger partner.

Experiment [1] addresses H2A-H2B (Alexa-488 H2B) (human) (UniProt P04908).
In a further experiment the target is TLH3 nucleosome (human) (UniProt P04908).
The target in the next experiment is TLH4 nucleosome (human) (UniProt P04908).
For experiment [2], the target named is H3-H4 (Alexa-488 H4) (human) (UniProt P68431).

One may read the Kd as a measure of binding affinity in units of concentration. Lower therefore signals higher affinity.

Consider “SMARCAD1 (from UniProt Q9H4L7 1-1026) (enzyme)”, for which the Kd worked out at 10 nM in experiment [1], 330 nM with TLH3 nucleosome (human), 110 nM with TLH4 nucleosome (human) and 1.2 nM in experiment [2].

Source of the values: paper doi:10.1101/2021.04.14.439859.
